Experimental data: patent publication US20260242478A1 (published 2026)
Where no end group is shown, it is not given here.

B1: Phage-2962 (peptide)
peptide: VQSLCVPYWMCTGF
modifications: cysteine pairing not given here; also: peptide displayed as fusion to phage pIII
notes: Clonal phage of the peptide-180 optimisation library, tested as crude phage supernatant; not shown: bacteriophage pIII coat protein to which the peptide is fused for display
B2: Phage-2952 (peptide)
peptide: IMPKCEPIWMCAGF
modifications: cysteine pairing not given here; also: peptide displayed as fusion to phage pIII
B3: Phage-2983 (peptide)
peptide: PERMCRPLWMCEGF
notes: It was tested as crude clonal phage supernatant; also called Peptide-180 library clone
B4: Phage-2977 (peptide)
peptide: TELRCVPSWMCTGF
notes: as for B3
B5: Phage-2981 (peptide)
peptide: DDRMCIPSWMCSGL
notes: as for B3
B6: Phage-2972 (peptide)
peptide: GDVYCKPAWMCDGF
modifications: cysteine pairing not given here; also: peptide displayed as fusion to phage pIII
notes: as for B1
B7: Phage-2969 (peptide)
peptide: LDIWCVPAWMCHGF
modifications: cysteine pairing not given here; also: peptide displayed as fusion to phage pIII
notes: as for B1
B8: Phage-2985 (peptide)
peptide: EEVYCVPKWMCLGF
notes: as for B3
B9: Phage-2968 (peptide)
peptide: WEAMCQPLWMCTGF
modifications: cysteine pairing not given here; also: peptide displayed as fusion to phage pIII
notes: as for B1
B10: Phage-2980 (peptide)
peptide: VEHWCRPEWMCAGF
notes: as for B3
B11: Phage-2965 (peptide)
peptide: LFKMCQPSWMCDGF
modifications: cysteine pairing not given here; also: peptide displayed as fusion to phage pIII
notes: as for B1
B12: Phage-2987 (peptide)
peptide: LLVRCQPEWMCVGF
notes: as for B3
B13: Phage-2982 (peptide)
peptide: PMHACIPMWMCAGF
notes: as for B3
B14: Phage-2975 (peptide)
peptide: GVPMCVPDWMCHGL
modifications: cysteine pairing not given here; also: peptide displayed as fusion to phage pIII
notes: as for B1

Experiments:
[1] = biological target: T1, PSMA Fab (biotinylated (site not stated)); assay: phage ELISA, biotinylated anti-PSMA Fab on neutravidin plate, anti-M13 HRP detection
T1 construct: Biotinylated PSMA Fab captured on neutravidin coated plates in the phage ELISA; also called Anti-PSMA Fab; 006 PSMA Fab

[2] = biological target: T1, PSMA Fab; assay: phage ELISA, captured anti-PSMA Fab pre-incubated with PSMA antigen as competitor, anti-M13 HRP detection
Protocol: (§1) Clonal phage were harvested as crude supernatants and screened via standard ELISAs. […] Prior to the addition of clonal phage. wells were incubated with blocking buffer and PSMA antigen or blocking buffer alone. Without washing or aspirating, clonal phage supernatants were then added to the wells and incubated for a short time. Wells were then washed followed by detection of bound phage using a horse radish conjugated anti-M13 antibody.

[3] = biological target: T2, PSMA Fab (006 PSMA Fab) (biotinylated (site not stated)); assay: clonal phage ELISA on biotinylated PSMA Fab captured on neutravidin, anti-M13 HRP detection, competitor PSMA antigen
T2 construct: also called Anti-PSMA Fab

[4] = biological target: T2, PSMA Fab (006 PSMA Fab); assay: clonal phage ELISA on biotinylated PSMA Fab captured on neutravidin, anti-M13 HRP detection, no PSMA antigen
Protocol: as §1

[5] = biological target: T3, Anti-PSMA Fab (biotinylated (site not stated)); assay: phage ELISA; captured anti-PSMA Fab pre-incubated with PSMA antigen as competitor
T3 construct: The biotinylated PSMA Fab was captured on neutravidin coated plates for the phage ELISA; also called 006 PSMA Fab

[6] = biological target: T3, Anti-PSMA Fab; assay: phage ELISA; biotinylated anti-PSMA Fab on neutravidin plate, anti-M13-HRP detection, no PSMA antigen
Protocol: as §1

Binder | Phage binding ELISA signal, Anti-PSMA Fab [1] | Phage binding ELISA signal, Anti-PSMA Fab in presence of PSMA antigen [2] | Phage binding ELISA signal, Anti-PSMA Fab with PSMA antigen [3] | Phage binding ELISA signal, Anti-PSMA Fab [4] | Phage binding ELISA signal, Anti-PSMA Fab with PSMA antigen [5] | Phage binding ELISA signal, Anti-PSMA Fab [6]
B1 | 2.26 | 0.102 |  |  |  | 
B2 |  |  | 0.0746 | 2.27 |  | 
VDIQCKPLWMCIGM [Phage-2953] |  |  | 0.0643 | 2.27 |  | 
AYEMCIPAWMCEGF [Phage-2957] |  |  | 0.0905 | 2.27 |  | 
B3 |  |  |  |  | 0.11 | 2.23
B4 |  |  |  |  | 0.0676 | 2.24
B5 |  |  |  |  | 0.0851 | 2.24
YLQFCKPVWMCTGF [Phage-2956] |  |  | 0.15 | 2.27 |  | 
B6 | 2.25 | 0.0762 |  |  |  | 
B7 | 2.26 | 0.0712 |  |  |  | 
B8 |  |  |  |  | 0.0871 | 2.23
B9 | 2.26 | 0.0968 |  |  |  | 
B10 |  |  |  |  | 0.0893 | 2.24
B11 | 2.26 | 0.0804 |  |  |  | 
B12 |  |  |  |  | 0.14 | 2.23
B13 |  |  |  |  | 0.114 | 2.23
TTAYCIPPWMCSGF [Phage-2955] |  |  | 0.15 | 2.27 |  | 
ADPVCRPQWMCEGF [Phage-2961] |  |  | 0.11 | 2.26 |  | 
B14 | 2.24 | 0.073 |  |  |  | 
